According to patent US20250129135A1, “Multi-Agonist and Use Thereof” (priority 2021, published 2025):
Residue numbers refer to the chain shown, from its start.

T1: human GIP receptor (human, UniProt P48546 22-466)
T1 sequence (looked up): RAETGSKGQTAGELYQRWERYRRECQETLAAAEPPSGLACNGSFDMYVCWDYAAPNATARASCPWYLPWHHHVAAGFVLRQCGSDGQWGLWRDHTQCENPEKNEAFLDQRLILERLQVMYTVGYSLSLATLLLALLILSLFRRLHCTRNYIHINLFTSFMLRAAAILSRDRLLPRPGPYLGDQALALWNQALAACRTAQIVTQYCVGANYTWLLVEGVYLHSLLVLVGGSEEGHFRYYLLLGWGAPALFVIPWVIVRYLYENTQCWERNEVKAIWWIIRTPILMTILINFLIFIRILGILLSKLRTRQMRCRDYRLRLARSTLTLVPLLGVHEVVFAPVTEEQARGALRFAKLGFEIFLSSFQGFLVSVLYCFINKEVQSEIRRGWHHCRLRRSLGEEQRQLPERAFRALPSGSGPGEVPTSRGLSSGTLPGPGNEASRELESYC

B1: Compound 15 (peptide)
peptide: YXQGTXTSDYSIFLDKKAQXAFIEFLLESHPSSGAPPPS
modifications: Aib at 2; αMeF at 6; Lys 17 side chain AEEAc-AEEAc-γGlu-CO(CH2)18COOH; Aib at 20; C-terminal amide (NH2)
B2: Compound 19 (peptide)
peptide: B1 peptide with F13X, S29T, H30G
modifications: Aib at 2; αMeF(2F) at 6; αMeL at 13; Lys 17 side chain AEEAc-AEEAc-γGlu-CO(CH2)18COOH; Aib at 20; C-terminal amide (NH2)
B3: Compound 22 (peptide)
peptide: B1 peptide with F13X, S29G, H30G, A35Q
modifications: Aib at 2; αMeF(2F) at 6; αMeL at 13; Lys 17 side chain AEEAc-AEEAc-γGlu-CO(CH2)18COOH; Aib at 20; C-terminal amide (NH2)
B4: Compound 26 (peptide)
peptide: B1 peptide with F13X
modifications: Aib at 2; αMeF at 6; αMeL at 13; Lys 17 side chain AEEAc-AEEAc-γGlu-CO(CH2)18COOH; Aib at 20; C-terminal amide (NH2)
B5: Compound 16 (peptide)
peptide: B1 peptide with S29X
modifications: Aib at 2; αMeF at 6; Lys 17 side chain AEEAc-AEEAc-γGlu-CO(CH2)18COOH; Aib at 20; Aib at 29; C-terminal amide (NH2)
B6: Compound 29 (peptide)
peptide: B1 peptide with F25Y, H30X, P38X
modifications: Aib at 2; αMeF at 6; Lys 17 side chain AEEAc-AEEAc-γGlu-CO(CH2)18COOH; Aib at 20; Aib at 30; Ac3c at 38; C-terminal amide (NH2)
B7: Compound 2 (peptide)
peptide: B1 peptide with F13X, F25Y, S29T, P38X
modifications: Aib at 2; αMeF at 6; αMeL at 13; Lys 17 side chain AEEAc-AEEAc-γGlu-CO(CH2)18COOH; Aib at 20; Ac3c at 38; C-terminal amide (NH2)
B8: Compound 18 (peptide)
peptide: B1 peptide with F25Y, S29X
modifications: Aib at 2; αMeF(2F) at 6; Lys 17 side chain AEEAc-AEEAc-γGlu-CO(CH2)18COOH; Aib at 20; Aib at 29; C-terminal amide (NH2)
B9: Compound 30 (peptide)
peptide: B1 peptide with F13X, S29T, H30X, P38X
modifications: Aib at 2; αMeF at 6; αMeL at 13; Lys 17 side chain AEEAc-AEEAc-γGlu-CO(CH2)18COOH; Aib at 20; Aib at 30; Ac3c at 38; C-terminal amide (NH2)
B10: Compound 20 (peptide)
peptide: B1 peptide with F13X, S29X
modifications: Aib at 2; αMeF(2F) at 6; αMeL at 13; Lys 17 side chain AEEAc-AEEAc-γGlu-CO(CH2)18COOH; Aib at 20; Aib at 29; C-terminal amide (NH2)

Molecular target: human GLP-1 receptor (human, UniProt P43220 24-463)
Assay: cell-based or functional assay

Binder | cAMP EC50, HEK-293 cells stably overexpressing human GLP-1 R | cAMP Rel. A (%) against human GLP-1 (7-37), human GLP-1 R cells
B1 | 0.023 nM | 191%
B2 | 0.009 nM | 489%
B3 |  | 733%
B4 | 0.022 nM | 200%
B5 | 0.02 nM | 220%
B6 | 0.016 nM | 275%
B7 | 0.026 nM | 169%
B8 | 0.012 nM | 367%
B9 | 0.02 nM | 220%
B10 | 0.01 nM | 440%

Molecular target: T1, human GIP receptor
Assay: cell-based or functional assay

Binder | cAMP Rel. A (%) against human GIP, human GIP R cells | cAMP EC50, CHO cells stably overexpressing human GIP R
B1 | 548% | 
B2 | 2260% | 0.008 nM
B3 | 2590% | 0.007 nM
B4 | 2590% | 0.007 nM
B5 | 335% | 
B6 | 58.6% | 0.309 nM
B7 | 724% | 0.025 nM
B8 | 862% | 0.021 nM
B9 | 1210% | 0.015 nM
B10 | 3020% | 

Molecular target: human GCG receptor (human, UniProt P47871 26-477)
Sequence (P47871 26-477): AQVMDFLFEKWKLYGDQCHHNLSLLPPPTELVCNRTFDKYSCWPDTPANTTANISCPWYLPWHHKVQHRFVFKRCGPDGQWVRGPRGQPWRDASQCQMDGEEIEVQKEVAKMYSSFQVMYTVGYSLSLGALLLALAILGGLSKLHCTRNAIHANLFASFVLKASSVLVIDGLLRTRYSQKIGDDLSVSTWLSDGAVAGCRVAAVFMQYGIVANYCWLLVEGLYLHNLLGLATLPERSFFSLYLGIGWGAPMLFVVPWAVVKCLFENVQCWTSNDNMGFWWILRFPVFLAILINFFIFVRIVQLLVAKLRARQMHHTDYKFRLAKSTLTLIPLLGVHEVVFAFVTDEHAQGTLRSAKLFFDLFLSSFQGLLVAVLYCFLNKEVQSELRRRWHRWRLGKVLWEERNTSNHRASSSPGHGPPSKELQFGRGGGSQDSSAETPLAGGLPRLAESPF
Assay: cell-based or functional assay

Binder | cAMP Rel. A (%) against human GCG, human GCG R cells | cAMP EC50, HEK-293 cells stably overexpressing human GCG R
B1 | 41% | 
B2 | 197% | 0.029 nM
B3 | 335% | 0.017 nM
B4 | 43.9% | 
B5 | 33.9% | 
B6 | 82.6% | 0.069 nM
B7 | 24.6% | 0.232 nM
B8 | 219% | 0.026 nM
B9 | 33% | 0.173 nM
B10 | 248% | 
